Positions count from the first letter of the chain named.
T1: human CD3 (SPR antigen of Example 2) (human)
T1 chain: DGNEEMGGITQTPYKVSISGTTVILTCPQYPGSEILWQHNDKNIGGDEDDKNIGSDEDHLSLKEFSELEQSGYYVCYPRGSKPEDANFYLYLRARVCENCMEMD

B1: CD38VH1xCD28cvnxCD3mid trispecific binding protein (other)
VH 1: QVQLQESGPGLVKPSQTLSLTCTVSGFSLSDYGVHWVRQPPGKGLEWLGVIWAGGGTNYNPSLKSRKTISKDTSKNQVSLKLSSVTAADTAVYYCARDKGYSYYYSMDYWGQGTTVTVS
VL 1: DIVLTQSPASLAVSPGQRATITCRASESVEYYVTSLMQWYQQKPGQPPKLLIFAASNVESGVPARFSGSGSGTDFTLTINPVEANDVANYYCQQSRKVPYTFGQGTKLEIK
VH 2: QVQLVESGGGVVQPGRSLRLSCAASGFTFTKAWMHWVRQAPGKQLEWVAQIKDKSNSYATYYADSVKGRFTISRDDSKNTLYLQMNSLRAEDTAVYYCRGVYYALSPFDYWGQGTLVTVSS
VL 2: DIVMTQTPLSLSVTPGQPASISCKSSQSLVHNNANTYLSWYLQKPGQSPQSLIYKVSNRFSGVPDRFSGSGSGTDFTLKISRVEAEDVGVYYCGQGTQYPFTFGSGTKVEIK
VH 3: QVQLVQSGAEVVKPGASVKVSCKASGYTFTSYAMHWVKEAPGQRLEWIGYIYPGQGGTNYNQKFQGRATLTADTSASTAYMELSSLRSEDTAVYFCARTGGLRRAYFTYWGQGTLVTVSS
VL 3: DIVLTQSPATLSLSPGERATISCRASQSVSSYGQGFMHWYQQKPGQPPRLLIYGASSRATGIPARFSGSGSGTDFTLTISPLEPEDFAVYYCQQNKEDPWTFGGGTKLEIK
B2: CD38VH1xCD28cvnxCD3low trispecific binding protein (other)
VH 1: B1 VH 1
VL 1: B1 VL 1
VH 2: B1 VH 2 with Q44G, D76N
VL 2: B1 VL 2 with A34G, S51L, S105G
VH 3: B1 VH 3
VL 3: B1 VL 3
notes: also called CD38VH1xCD28cvnxCD3mid/low
B3: CD38HHY1370xCD28supxCD3mid trispecific binding protein (other)
light 1: DIVMTQTPLSLSVTPGQPASISCKSSQSLVHNNANTYLSWYLQKPGQSPQSLIYKVSNRFSGVPDRFSGSGSGTDFTLKISRVEAEDVGVYYCGQGTQYPFTFGSGTKVEIKGQPKAAPDIQMTQSPSSLSASVGDRVTITCQASQNIYVWLNWYQQKPGKAPKLLIYKASNLHTGVPSRFSGSGSGTDFTLTISSLQPEDIATYYCQQGQTYPYTFGQGTKLEIKTKGPSRTVAAPSVFIFPPSDEQLKSGTASVVCLLNNFYPREAKVQWKVDNALQSGNSQESVTEQDSKDSTYSLSSTLTLSKADYEKHKVYACEVTHQGLSSPVTKSFNRGEC
heavy 1: QVQLVQSGAEVVKPGASVKVSCKASGYTFTSYYIHWVRQAPGQGLEWIGSIYPGNVNTNYAQKFQGRATLTVDTSISTAYMELSRLRSDDTAVYYCTRSHYGLDWNFDVWGKGTTVTVSSSQVQLVESGGGVVQPGRSLRLSCAASGFTFTKAWMHWVRQAPGKQLEWVAQIKDKSNSYATYYADSVKGRFTISRDDSKNTLYLQMNSLRAEDTAVYYCRGVYYALSPFDYWGQGTLVTVSSRTASTKGPSVFPLAPCSRSTSESTAALGCLVKDYFPEPVTVSWNSGALTSGVHTFPAVLQSSGLYSLSSVVTVPSSSLGTKTYTCNVDHKPSNTKVDKRVESKYGPPCPPCPAPEAAGGPSVFLFPPKPKDTLMISRTPEVTCVVVDVSQEDPEVQFNWYVDGVEVHNAKTKPREEQFNSTYRVVSVLTVLHQDWLNGKEYKCKVSNKGLPSSIEKTISKAKGQPREPQVCTLPPSQEEMTKNQVSLSCAVKGFYPSDIAVEWESNGQPENNYKTTPPVLDSDGSFFLVSKLTVDKSRWQEGNVFSCSVMHEALHNHYTQKSLSLSLG
heavy 2: QVQLVESGGGVVQPGRSLRLSCAASGFTFSSYGMHWVRQAPGKGLEWVAVIWYDGSNKYYADSVKGRFTISGDNSKNTLYLQMNSLRAEDTAVYYCARMFRGAFDYWGQGTLVTVSSASTKGPSVFPLAPCSRSTSESTAALGCLVKDYFPEPVTVSWNSGALTSGVHTFPAVLQSSGLYSLSSVVTVPSSSLGTKTYTCNVDHKPSNTKVDKRVESKYGPPCPPCPAPEAAGGPSVFLFPPKPKDTLMISRTPEVTCVVVDVSQEDPEVQFNWYVDGVEVHNAKTKPREEQFNSTYRVVSVLTVLHQDWLNGKEYKCKVSNKGLPSSIEKTISKAKGQPREPQVYTLPPCQEEMTKNQVSLWCLVKGFYPSDIAVEWESNGQPENNYKTTPPVLDSDGSFFLYSKLTVDKSRWQEGNVFSCSVMHEALHNHYTQKSLSLSLG
light 2: AIQMTQSPSSLSASVGDRVTITCRASQGIRNDLGWYQQKPGKAPKLLIYAASSLQSGVPSRFSGSGSGTDFTLTISGLQPEDSATYYCLQDYIYYPTFGQGTKVEIKRTVAAPSVFIFPPSDEQLKSGTASVVCLLNNFYPREAKVQWKVDNALQSGNSQESVTEQDSKDSTYSLSSTLTLSKADYEKHKVYACEVTHQGLSSPVTKSFNRGEC
B4: CD38VH1xCD28supxCD3mid trispecific binding protein (other)
light 1: B3 light 1
heavy 1: B3 heavy 1
heavy 2: QVQLVQSGAEVVKPGASVKVSCKASGYTFTSYAMHWVKEAPGQRLEWIGYIYPGQGGTNYNQKFQGRATLTADTSASTAYMELSSLRSEDTAVYFCARTGGLRRAYFTYWGQGTLVTVSSASTKGPSVFPLAPCSRSTSESTAALGCLVKDYFPEPVTVSWNSGALTSGVHTFPAVLQSSGLYSLSSVVTVPSSSLGTKTYTCNVDHKPSNTKVDKRVESKYGPPCPPCPAPEAAGGPSVFLFPPKPKDTLMISRTPEVTCVVVDVSQEDPEVQFNWYVDGVEVHNAKTKPREEQFNSTYRVVSVLTVLHQDWLNGKEYKCKVSNKGLPSSIEKTISKAKGQPREPQVYTLPPCQEEMTKNQVSLWCLVKGFYPSDIAVEWESNGQPENNYKTTPPVLDSDGSFFLYSKLTVDKSRWQEGNVFSCSVMHEALHNHYTQKSLSLSLG
light 2: DIVLTQSPATLSLSPGERATISCRASQSVSSYGQGFMHWYQQKPGQPPRLLIYGASSRATGIPARFSGSGSGTDFTLTISPLEPEDFAVYYCQQNKEDPWTFGGGTKLEIKRTVAAPSVFIFPPSDEQLKSGTASVVCLLNNFYPREAKVQWKVDNALQSGNSQESVTEQDSKDSTYSLSSTLTLSKADYEKHKVYACEVTHQGLSSPVTKSFNRGEC
notes: also called antiCD38_C2-CD38-1_VH1-VL1xCD28supxCD3mid
B5: CD38VH1xCD28supxCD3low trispecific binding protein (other)
VH 1: QVQLVQSGAEVVKPGASVKVSCKASGYTFTSYYIHWVRQAPGQGLEWIGSIYPGNVNTNYAQKFQGRATLTVDTSISTAYMELSRLRSDDTAVYYCTRSHYGLDWNFDVWGKGTTVTVSS
VL 1: DIQMTQSPSSLSASVGDRVTITCQASQNIYVWLNWYQQKPGKAPKLLIYKASNLHTGVPSRFSGSGSGTDFTLTISSLQPEDIATYYCQQGQTYPYTFGQGTKLEIK
VH 2: B1 VH 2 with Q44G, D76N
VL 2: B1 VL 2 with A34G, S51L, S105G
VH 3: B1 VH 3
VL 3: B1 VL 3
notes: also called CD38VH1xCD28supxCD3mid/low
B6: antiCD38_C2-CD38-1_VH3-VL3 (antibody, human IgG1, kappa, V domains shown)
VH: B1 VH 3 with Y32F, A33N, Q55N
VL: DIVLTQSPATLSLSPGERATISCRASESVDSYGNGFMHWYQQKPGQPPRLLIYLASSRATGIPARFSGSGSGTDFTLTISPLEPEDFAVYYCQQNKEDPWTFGGGTKLEIKR

Key:
[1] = target: T2, recombinant human CD38 (SPR antigen of Example 2) (human, UniProt P28907 43-300); test: SPR; KD rounded to integer; the cell gives two values for mid/low, the first taken as the CD3mid construct
[2] = target: T1, human CD3 (SPR antigen of Example 2); test: as above
[3] = target: T3, human CD28 (SPR antigen of Example 2) (human, UniProt P10747 19-152); test: as above
[4] = target: T4, human CD38 expressed on the surface of recombinant murine preB::300.19 cells (human, UniProt P28907 1-300); test: flow cytometry on hCD38-expressing murine preB::300.19 cells, apparent KD (called EC50 in paragraph 336)
T4 construct: whole, on cells; also called hCD38-expressing cells; cells expressing human CD38

[5] = target: T4, human CD38 expressed on the surface of …; test: flow cytometry on hCD38-expressing murine preB::300.19 cells
[6] = target: T5, cynomolgus monkey CD38 expressed on the surface of recombinant murine preB::300.19 cells (cynomolgus monkey, UniProt Q5VAN0 1-301); test: flow cytometry on cCD38-expressing murine preB::300.19 cells, apparent KD (called EC50 in paragraph 336)
T5 construct: whole, on cells; also called cCD38-expressing cells; cells expressing cynomolgus CD38

[7] = target: T2, recombinant human CD38 (SPR antigen of …); test: SPR against recombinant protein; the cell gives two values for mid/low, the first taken as the CD3mid construct
[8] = target: T5, cynomolgus monkey CD38 expressed on the …; test: flow cytometry on cCD38-expressing murine preB::300.19 cells
[9] = target: T2, recombinant human CD38 (SPR antigen of …); test: SPR against recombinant protein; the cell gives two values for mid/low, the second taken as the CD3low construct
[10] = target: T2, recombinant human CD38 (SPR antigen of …); test: SPR; KD rounded to integer; the cell gives two values for mid/low, the second taken as the CD3low construct
[11] = target: T1, human CD3 (SPR antigen of Example 2); test: as above
[12] = target: T3, human CD28 (SPR antigen of Example 2); test: as above
[13] = target: T1, human CD3 (SPR antigen of Example 2); test: SPR; KD rounded to integer per the table's title
[14] = target: T2, recombinant human CD38 (SPR antigen of …); test: SPR
[15] = target: T6, hCD38-his (SEQ ID NO: 2) (human, UniProt P28907 45-300); test: SPR (summary table; Table K value rounded)
T6 construct: also called human CD38-histag (ID2); soluble extracellular domain of humanCD38

Binder	Kd [1] [nM]	Kd [2] [nM]	Kd [7] [nM]	Kd [9] [nM]	Kd [10] [nM]	Kd [11] [nM]	Kd [12] [nM]	also measured
B1	4	23	4					Kd [3]: 18 nM; Kd [4]: 4.4 nM; fold lower apparent affinity than the parental antiCD38_C2-CD38-1_VH1-VL1 antibody [5]: 9 fold; Kd [6]: 7.5 nM; fold lower apparent affinity than the parental antiCD38_C2-CD38-1_VH1-VL1 antibody [8]: 7.5 fold
B2				6	6	59	34	
B3								Kd [13]: 48 nM; Kd [14]: 1 nM
B4	4	21	4					EC50 [5]: 11 nM
B5				6	6	76	4	
B6								Kd [15]: 0.48 nM

From patent US20200140552A1 (Sanofi, published 2020)
